The results in this text go back to patent publication US20170362301A1 (Janssen / Centocor, published 2017).

Where a chain is given by its changes, count along the chain named. Numbers in names are those of the source.

B1: P54AR4-83v2 S52C, NEM conjugate (designed binder)
chain: LPAPKNLVVSEVTEDSARLSWDDPWAFYESFLIQYQESEKVGEAIVLTVPGCERSYDLTGLKPGTEYTVSIYGVHNVYKDTNMRGLPLSAIFTT
modifications: NEM on Cys 52
notes: His-tagged
B2: P54AR4-83v2 S89C, NEM conjugate (designed binder)
chain: B1 chain with C52S, S89C
modifications: NEM on Cys 89
notes: His-tagged
B3: P54AR4-83v2 S55C, NEM conjugate (designed binder)
chain: B1 chain with C52S, S55C
modifications: NEM on Cys 55
notes: His-tagged
B4: P54AR4-83v2 V41C, NEM conjugate (designed binder)
chain: B1 chain with V41C, C52S
modifications: NEM on Cys 41
notes: His-tagged
B5: P54AR4-83v2 S70C, NEM conjugate (designed binder)
chain: B1 chain with C52S, S70C
modifications: NEM on Cys 70
notes: His-tagged
B6: P54AR4-83v2 Y28C, NEM conjugate (designed binder)
chain: B1 chain with Y28C, C52S
modifications: NEM on Cys 28
notes: His-tagged
B7: P54AR4-83v2 T59C, NEM conjugate (designed binder)
chain: B1 chain with C52S, T59C
modifications: NEM on Cys 59
notes: His-tagged
B8: P54AR4-83v2 V9C, NEM conjugate (designed binder)
chain: B1 chain with V9C, C52S
modifications: NEM on Cys 9
notes: His-tagged
B9: P54AR4-83v2 V12C, NEM conjugate (designed binder)
chain: B1 chain with V12C, C52S
modifications: NEM on Cys 12
notes: His-tagged
B10: P54AR4-83v2 Y78C, NEM conjugate (designed binder)
chain: B1 chain with C52S, Y78C
modifications: NEM on Cys 78
notes: His-tagged
B11: P54AR4-83v2 V74C, NEM conjugate (designed binder)
chain: B1 chain with C52S, V74C
modifications: NEM on Cys 74
notes: His-tagged
B12: P54AR4-83v2 T13C, NEM conjugate (designed binder)
chain: B1 chain with T13C, C52S
modifications: NEM on Cys 13
notes: His-tagged
B13: P54AR4-83v2 V49C, NEM conjugate (designed binder)
chain: B1 chain with V49C, C52S
modifications: NEM on Cys 49
notes: His-tagged
B14: P54AR4-83v2 T81C, NEM conjugate (designed binder)
chain: B1 chain with C52S, T81C
modifications: NEM on Cys 81
notes: His-tagged
B15: P54AR4-83v2 V46C, NEM conjugate (designed binder)
chain: B1 chain with V46C, C52S
modifications: NEM on Cys 46
notes: His-tagged
B16: P54AR4-83v2 V77C, NEM conjugate (designed binder)
chain: B1 chain with C52S, V77C
modifications: NEM on Cys 77
notes: His-tagged
B17: P54AR4-83v2 V8C, NEM conjugate (designed binder)
chain: B1 chain with V8C, C52S
modifications: NEM on Cys 8
notes: His-tagged
B18: P54AR4-83v2 T68C, NEM conjugate (designed binder)
chain: B1 chain with C52S, T68C
modifications: NEM on Cys 68
notes: His-tagged
B19: P54AR4-83v2 T93C, NEM conjugate (designed binder)
chain: B1 chain with C52S, T93C
modifications: NEM on Cys 93
notes: His-tagged
B20: P54AR4-83v2 Y72C, NEM conjugate (designed binder)
chain: B1 chain with C52S, Y72C
modifications: NEM on Cys 72
notes: His-tagged
B21: P54AR4-83v2 T48C, NEM conjugate (designed binder)
chain: B1 chain with T48C, C52S
modifications: NEM on Cys 48
notes: His-tagged
B22: P54AR4-83v2 W25C, NEM conjugate (designed binder)
chain: B1 chain with W25C, C52S
modifications: NEM on Cys 25
notes: His-tagged
B23: 83v2cy5-mal-PEG4-MMAE (designed binder)
chain: MLPAPKNLVVSEVTEDSARLSWDDPWAFYESFLIQYQESEKVGEAIVLTVPGSERSYDLTGLKPGTEYTVSIYGVHNVYKDTNMRGLPLSAIFTTGGHHHHHHC
modifications: mal-PEG4-MMAE on the cysteine
B24: 83v2cy5-mal-PEG4-MMAF (designed binder)
chain: B23 chain
modifications: mal-PEG4-MMAF on the cysteine
B25: 83v2cy5-mal-PEG4-VC-MMAE (designed binder)
chain: B23 chain
modifications: mal-PEG4-VC-MMAE on the cysteine
B26: 83v2cy5-mal-PEG4-VK-MMAE (designed binder)
chain: B23 chain
modifications: mal-PEG4-VK-MMAE on the cysteine

One experiment deals with T1, EGFR (form in the assay not stated) (human, UniProt P00533 25-645, limits assumed). In words: ELISA, NEM conjugate 10 nM.
For B1, the “binding ratio vs parent P54AR4-83v2” value is 0.78 ratio.
On the same count and under the same terms, the result for B2 reads 0.97 ratio; that for B3, 0 ratio.
Turning to B4, the “binding ratio vs parent P54AR4-83v2” value was 0.92 ratio.
Still for that read-out and setting: the result for B5 reads 0.86 ratio; that for B6, 0 ratio; that for B7, 0.83 ratio.
Still for that read-out and setting: the result for B8 reads 0.94 ratio; that for B9, 0.87 ratio.
Take B10: the “binding ratio vs parent P54AR4-83v2” value was 0.31 ratio.
B11: the “binding ratio vs parent P54AR4-83v2” value amounted to 0.76 ratio.
The same measure, in the same setting: the figure for B12 is 0.87 ratio; for B13 it is 0.96 ratio; for B14 it is 0.5 ratio.
For the molecule B15, the “binding ratio vs parent P54AR4-83v2” value is 0.61 ratio.
Same read-out and setting: the result for B16 reads 0.03 ratio; that for B17, 0.96 ratio; that for B18, 0.83 ratio.
Still for that read-out and setting: the figure for B19 is 0.96 ratio.
Same read-out and setting: the result for B20 reads 0.93 ratio; that for B21, 0.88 ratio.
Regarding B22, the “binding ratio vs parent P54AR4-83v2” value came to 0.38 ratio.

The next experiment deals with T1, EGFR (form in the assay not stated). In words: ELISA, NEM conjugate 100 nM.
Turning to B1, the “binding ratio vs parent P54AR4-83v2” value came to 1.03 ratio.
For the molecule B2, the “binding ratio vs parent P54AR4-83v2” value stood at 1.02 ratio.
For the molecule B3, the “binding ratio vs parent P54AR4-83v2” value is 0 ratio.
B4: the “binding ratio vs parent P54AR4-83v2” value stood at 0.99 ratio.
In the case of B5, the “binding ratio vs parent P54AR4-83v2” value turned out to be 1.01 ratio.
Same read-out and setting: the result for B6 reads 0.01 ratio; that for B7, 1.04 ratio.
The same measure, in the same setting: the result for B8 reads 1.03 ratio; that for B9, 1.06 ratio.
On the same count and under the same terms, the figure for B10 is 0.63 ratio; for B11 it is 1.01 ratio; for B12 it is 1.04 ratio.
Take B13: the “binding ratio vs parent P54AR4-83v2” value came to 1.01 ratio.
For the molecule B14, the “binding ratio vs parent P54AR4-83v2” value turned out to be 0.9 ratio.
Turning to B15, the “binding ratio vs parent P54AR4-83v2” value worked out at 1.01 ratio.
Turning to B16, the “binding ratio vs parent P54AR4-83v2” value is 0 ratio.
On the same count and under the same terms, the result for B17 reads 1.03 ratio.
Take B18: the “binding ratio vs parent P54AR4-83v2” value was found to be 1.04 ratio.
Same read-out and setting: the result for B19 reads 1.05 ratio; that for B20, 1 ratio; that for B21, 1 ratio.
Still for that read-out and setting: the result for B22 reads 0.64 ratio.

For a further experiment the target is unchanged. In words: ELISA, NEM conjugate 500 nM.
In the case of B1, the “binding ratio vs parent P54AR4-83v2” value is 0.93 ratio.
Turning to B2, the “binding ratio vs parent P54AR4-83v2” value is 1.04 ratio.
On to B3, for which the “binding ratio vs parent P54AR4-83v2” value came to 0.11 ratio.
On the same count and under the same terms, the result for B4 reads 0.95 ratio; that for B5, 0.93 ratio.
Same read-out and setting: the result for B6 reads 0.09 ratio; that for B7, 0.93 ratio.
Still for that read-out and setting: the result for B8 reads 0.93 ratio; that for B9, 0.93 ratio; that for B10, 0.68 ratio.
Consider B11, for which the “binding ratio vs parent P54AR4-83v2” value was found to be 0.95 ratio.
The same measure, in the same setting: the result for B12 reads 0.9 ratio; that for B13, 0.98 ratio; that for B14, 1.02 ratio.
Same read-out and setting: the result for B15 reads 0.9 ratio; that for B16, 0.03 ratio; that for B17, 0.9 ratio.
Same read-out and setting: the figure for B18 is 0.95 ratio.
Take B19: the “binding ratio vs parent P54AR4-83v2” value was 1.04 ratio.
Still for that read-out and setting: the result for B20 reads 0.93 ratio; that for B21, 0.93 ratio.
B22: the “binding ratio vs parent P54AR4-83v2” value is 0.7 ratio.

The next experiment has as its target EGFR on cells (A431, NCI-H292, NCI-H322, NCI-H441) (human, UniProt P00533 25-1210). Nature of the experiment: cell-based or functional assay.
In the case of B23, the “IC50 A431 (nM), cell viability” value is greater than 500 nM.
On the same count and under the same terms, the figure for B24 is greater than 1000 nM; for B25 it is 315 nM; for B26 it is 19.6 nM.
